# Experimental data: US20120171115A1 (AVIPEP, published 2012)
# Target: recombinant HER2 ectodomain (human, UniProt P04626 23-652)
# Assay: column shift assay: gel filtration monitored at A280, diabody pre-incubated with recombinant HER2 ectodomain
# Protocol: Binding activity to soluble antigen was established by a column shift. […] In the column shift assay, at least two times mole excess of soluble antigen to diabody was incubated for 1 hr at ambient temperature. Binding activity was determined by comparing the resulting diabody/antigen complex peak to the free diabody peak. The elution profiles of the diabody or diabody/antigen complex was monitored either directly though absorbance at 280 nm or, in cases where the diabody was Europium labelled, elution fractions were measured in a Victor time-resolved fluorometer using the Europium mode in the Victor multilabel program wizard.
binder,measurement,value
"AVP07-17 anti-Her2 diabody (other, Diabody: homodimer of VH-Gly4Ser-VL chains from a human anti-HER2 mAb, with a C-terminal His6 tag from cloning; also called AVP07-17 Avibody) QVQLVQSGAEVKKPGESLKISCKGSGYSFTSYWIAWVRQMPGKGLEYMGLIYPGDSDTKYSPSFQGQVTISVDKSVSTAYLQWSSLKPSDSAVYFCARHDVGYCSSSNCAKWPEYFQHWGQGTLVTVSSGGGGSQSVLTQPPSVSAAPGQKVTISCSGSSSNIGNNYVSWYQQLPGTVPKLLIYGHTNRPAGVPDRFSGSKSGTSASLAISGFRSEDEADYYCAAWDDSLSGWVFGGGTKLTVLGAAAEQKLISEEDLNGAAHHHHHH",binding result,binds
